From the Human Domainome abundance scans (Beltran et al. 2025)

B1: Unconventional myosin-Ie, residues 1051 to 1108; numbered along this chain, Q12965 (parent)
chain: PQVPQCKALYAYDAQDTDELSFNANDIIDIIKEDPSGWWTGRLRGKQGLFPNNYVTKI

Variants of: B1
Test: abundance fitness (aPCA) (normalised: wild type 0, dead -1); higher = more abundant; growth selection in yeast, the domain comes from the species named
Conditions: Homo sapiens

Abundance fitness, by site and new letter:
A11: D 0.102, G -0.186, L -0.308, N 0.022, C -0.193, M -0.149, H -0.013, E -0.059, Q 0.045, T -0.218, P 0.019, F -0.388, S -0.023, R 0.025
L20: N -0.764, W -1.01, E -0.807, G -1.03, C -0.708, K -0.836, Q -1.12, T -1.04, I -0.05, S -0.879, P -1.11, V -0.879, D -0.893, H -0.977, M -0.214
C6: P -0.96, S -0.448, W -0.571, K -1, T -0.768, I -0.67, A 0.097, R -0.818, V -0.001, M -0.172, H -0.839, G 0, D -0.807, L -0.866
V3: I -0.145
Y12: Q -0.887, E -0.396, K -0.54, T -0.836, M -0.761, L -0.892, R -0.107, F -0.377, I -0.966, A -0.803, S -0.909, W -0.15, C -0.968, H -0.274, V -0.891, G -0.937
Q2: T -0.155, E -0.193, G -0.102, N 0.068, D 0.01, V -0.173, W -0.12, H -0.208, Y -0.373, F -0.597, P -0.062, A -0.091, C -0.193, I -0.176, M 0.153, K -0.09, L -0.106, S -0.223, R -0.317
K7: W -0.26, A -0.137, M -0.092, R -0.114, H -0.122, I 0.004, P -0.945, V -0.057, S -0.167, F -0.267, E -0.264, C -0.028, Y -0.074, D -1.02, G -0.943, Q -0.287, L -0.106, T -0.049, N -0.647
F22: P -0.834, I -0.409, S -0.766, T -0.793, M -0.441, D -0.748, V -0.472, W -0.996, R -0.953, N -0.816, E -0.858, C -0.895, G -0.954, K -0.754, Y -0.714, H -0.727
T17: Y -0.238, M -0.043, D -0.007, R -0.111, A 0.026, C -0.128, F -0.287, P -0.273, K -0.18, Q -0.078, G -0.057, S -0.077, W -0.091, E -0.272, L -0.239, H -0.137, N -0.423
L9: K -0.187, P -0.822, S -0.3, Q -0.268, I -0.375, T -0.491, A -0.315, M -0.213, C -0.222, H -0.367, R -0.291, Y -0.701, G -0.624, N -0.232, W -0.588, D -0.451, E -0.149, V -0.148, F -0.743
N23: C -0.062, E 0.005, H -0.048, G -0.048, F -0.076, D -0.047, A -0.01
P1: V 0.027, R -0.362, W -0.237, T 0.057, S 0.006
D13: R -0.165, G -0.304, M -0.16, N -0.084, Q -0.018, V -0.161, T 0.012, H -0.16, S -0.189, C -0.134, E -0.067, F -0.293, P -0.399, Y -0.209, A -0.156, I -0.082, W -0.368
E19: L -0.435, Q -0.125, N -0.277, Y 0.191, P -0.925, R -0.189, G -0.018, W -0.359, K -0.136, T -0.132, I -0.548, V -0.382, F -0.095, D -0.54, M -0.055, S -0.159, C -0.123, A -0.288
D16: M -0.098, P -0.798, N -0.052, W -0.231, H -0.206, I -0.557, L -0.271, T -0.024, F -0.19, C -0.057, K -0.069, G -0.156, E -0.097, A -0.055, V -0.169, Q -0.22, Y -0.093
Q5: M -0.041, F -0.158, W -0.281, Y -0.007, I -0.072, K -0.075, C -0.269, A -0.245, V -0.065, N -0.062, S -0.065, P -0.739, T 0.01, R 0.023, E -0.467, L -0.135
Y10: M -0.158, A -0.186, D -0.247, E -0.217, H -0.135, G -0.309, S -0.166, L -0.16, Q -0.054, C -0.14, V -0.121, N -0.472, W -0.092, T -0.218, F -0.151, R 0.056, P -0.821, K -0.043, I -0.364
Q15: I -0.172, S -0.261, K -0.186, G -0.157, L -0.173, R -0.035, C -0.239, V -0.193, A -0.087, M -0.059, W -0.408, Y -0.312, H -0.28, E -0.23, P -0.484, N 0.037, F -0.291, T -0.054, D -0.145
A8: T -0.544, W -1.03, M -0.817, F -0.619, S -0.714, K -0.902, I -1, C -0.196, G -0.748, V -0.714, P -0.732, E -0.674, N -0.853, R -0.887
S21: V -0.891, D -0.217, C -0.219, F -0.938, K -0.266, H -0.931, A -0.263, Y -0.756, L -0.939, E -0.247, G -0.358, M -0.803, N -0.175, W -0.559, T -0.058, Q -0.325
A14: S -0.188, C -0.284, H -0.741, D -0.797, K -0.195, T -0.374, Q -0.345, P -0.371, E -0.695, N -0.452, L -0.98, I -0.901, F -0.782, G -0.173, R -0.377, W -1.13, V -0.871, M -0.42
D18: H -0.279, Y -0.078, V -0.257, C -0.05, P 0.089, Q -0.152, R -0.065, F -0.238, G -0.056, M -0.091, T -0.1, A -0.162, S 0.009, W -0.2, N -0.055, L -0.063, I -0.197, E 0.052
